The experiment concerns the target T1, GST-HPY2 (Arabidopsis thaliana, UniProt Q8GYH7 1-249).
T1 construct: HIGH PLOIDY2 (HPY2), E3 SUMO ligase of Arabidopsis, full-length cDNA cloned into pGEX4T-1; also called HIGH PLOIDY2; AtHPY2; source: E. coli BL21, purified (glutathione resin)
T1 sequence (looked up): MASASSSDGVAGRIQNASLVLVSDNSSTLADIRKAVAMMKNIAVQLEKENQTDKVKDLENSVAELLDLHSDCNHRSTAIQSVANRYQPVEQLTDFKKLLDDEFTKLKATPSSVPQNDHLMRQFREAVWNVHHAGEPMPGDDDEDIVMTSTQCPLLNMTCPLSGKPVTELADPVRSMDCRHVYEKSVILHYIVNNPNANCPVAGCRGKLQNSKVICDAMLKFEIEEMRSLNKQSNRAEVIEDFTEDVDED
As to the kind of experiment: pull-down; in vitro GST pull-down, 2 ug each of GST-HPY2 bait and His6-FLC prey; His6-FLC detected by Western blot with anti-His antibody. The settings on record: both partners purified. Background: Immunoblotting shows a protein as a band on a membrane.

B1: His6-FLC (natural protein, Arabidopsis thaliana, UniProt Q9S7Q7 1-196, looked up)
chain: MGRKKLEIKRIENKSSRQVTFSKRRNGLIEKARQLSVLCDASVALLVVSASGKLYSFSSGDNLVKILDRYGKQHADDLKALDHQSKALNYGSHYELLELVDSKLVGSNVKNVSIDALVQLEEHLETALSVTRAKKTELMLKLVENLKEKEKMLKEENQVLASQMENNHHVGAEAEMEMSPAGQISDNLPVTLPLLN
notes: Flowering Locus C (FLC), MADS-box transcription factor of Arabidopsis, full-length cDNA cloned into pET28a; also called Flowering Locus C; source: E. coli BL21, purified (Ni2+-NTA resin)
Turning to B1, the binding result is given as “binds”.

Source of the values: publication PMC4837325, “Arabidopsis HIGH PLOIDY2 Sumoylates and Stabilizes Flowering Locus C through Its E3 Ligase Activity” (Frontiers in Plant Science, 2016).
